According to publication PMC9375095:

Target: E-cadherin (human (endogenous in MCF7, HaCaT and FFPE human tissue))
Test: MolBoolean (proximity assay with antibody-DNA conjugates); FFPE human tissue sections after deparaffinisation and antigen retrieval; secondary proximity probes; percentage of RCPs in each category per frame

Sequence of E-cadherin (human (endogenous in MCF7, HaCaT and FFPE human tissue)) (P12830 23-882): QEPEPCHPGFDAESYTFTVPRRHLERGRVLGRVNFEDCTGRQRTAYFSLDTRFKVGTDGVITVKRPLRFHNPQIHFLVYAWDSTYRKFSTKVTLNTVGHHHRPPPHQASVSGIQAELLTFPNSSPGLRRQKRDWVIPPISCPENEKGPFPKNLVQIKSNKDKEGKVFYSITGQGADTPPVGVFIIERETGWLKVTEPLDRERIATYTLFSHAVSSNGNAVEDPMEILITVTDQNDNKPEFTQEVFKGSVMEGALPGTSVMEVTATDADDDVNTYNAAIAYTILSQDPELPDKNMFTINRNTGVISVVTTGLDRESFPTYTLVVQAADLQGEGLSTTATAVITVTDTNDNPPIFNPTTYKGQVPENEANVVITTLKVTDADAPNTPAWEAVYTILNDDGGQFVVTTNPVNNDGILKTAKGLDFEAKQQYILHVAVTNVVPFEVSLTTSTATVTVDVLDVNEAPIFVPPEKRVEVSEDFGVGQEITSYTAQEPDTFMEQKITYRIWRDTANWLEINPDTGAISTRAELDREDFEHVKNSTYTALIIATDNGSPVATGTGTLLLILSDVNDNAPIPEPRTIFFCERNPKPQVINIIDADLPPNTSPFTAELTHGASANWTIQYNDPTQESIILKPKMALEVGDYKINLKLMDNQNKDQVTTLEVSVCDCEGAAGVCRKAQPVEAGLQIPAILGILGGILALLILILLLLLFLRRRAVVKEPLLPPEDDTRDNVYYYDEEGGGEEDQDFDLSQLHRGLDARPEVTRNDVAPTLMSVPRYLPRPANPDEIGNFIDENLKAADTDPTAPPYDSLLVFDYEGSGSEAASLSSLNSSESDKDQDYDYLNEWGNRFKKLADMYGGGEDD

percent of the detected signal per image from complexes: 50%
Substance: β-catenin (from UniProt P35222 1-781) (natural protein)
